Measured values as given in patent publication US20220002384A1 (published 2022).
Blank lines part the entries; values can stand above or below the binder they belong to.

Target: T1, AXL (R&D Systems cat#154-AL) (UniProt P30530 26-440)
T1 chain: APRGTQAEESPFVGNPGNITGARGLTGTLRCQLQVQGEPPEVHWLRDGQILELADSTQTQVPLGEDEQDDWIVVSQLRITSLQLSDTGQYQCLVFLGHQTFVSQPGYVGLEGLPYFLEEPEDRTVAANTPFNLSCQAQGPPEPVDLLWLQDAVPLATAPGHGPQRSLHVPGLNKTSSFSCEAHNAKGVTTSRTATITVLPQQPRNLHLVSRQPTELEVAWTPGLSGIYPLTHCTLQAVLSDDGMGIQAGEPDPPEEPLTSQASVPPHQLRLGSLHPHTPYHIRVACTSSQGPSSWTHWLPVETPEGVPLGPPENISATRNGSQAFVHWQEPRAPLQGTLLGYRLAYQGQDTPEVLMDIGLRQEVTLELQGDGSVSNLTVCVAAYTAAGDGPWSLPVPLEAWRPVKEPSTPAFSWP
Experiment: BLI

Kd: 12 nM
B1: AXL #56 (designed binder)
chain: NVSPPRRARVTDATETTITISWRVSPSTVVGLQVDAVPANGQTPIQRTIKPDVRSYTITGLQPGTDYKIYLYTLNVIGGSAHASSPVVIDAST

Kd: 4 nM
B2: AXL #44 (designed binder)
chain: NVSPPRRARVTDATETTITIRWEGRGVIGFQVDAVPANGQTPIQRTIKPDVRSYTITGLQPGTDYKIYLYTLPNIGTGHFSSSPVVIDAST
